Measurements reported in the RNAGym collection of RNA variant scans (doi:10.7554/elife.80360).

B1: HDV Ribozyme (parent)
chain: GGCCGGCAUGGUCCCAGCCUCCUCGCUGGCGCCGGCUGGGCAACAUUCCGAGGGGACCGUCCCCUCGGUAAUGGCGAAUGGGACCCA

Variants of: B1
Experiment: self-cleavage, relative activity (ratio to wild type); higher = more cleavage; co-transcriptional

Variant	self-cleavage
G81C C86U	0.302
G10U U46G	0.597
C21U U27C	0.0536
A42G U47G	0.7
A43C C49A	0.172
C21U C32G	0
C13A G67A	0.23
U27A U37C	0.578
C26A A83C	0.752
G5C C75G	0.123
U23C C57U	0.743
G50A A83U	0.486
A51U C66G	0.816
G38A A51C	0.212
C3G C33A	0.0817
C3G U9A	0.799
C14A U60A	0.499
U23C C64A	0.743
G5C A51U	0.298
G34C U69C	0.249
C15U G17A	0.604
G39C C64U	0.224
G5U C36G	0.128
C63A C66A	0.302

Variant	self-cleavage
U12C C14A	0.18
A16U G50C	1.03
G73A G81A	0.176
G2C G50C	0.0277
C62U G74U	0.679
C13U A51C	0.997
G35C G55C	0.366
C26G C75U	0.262
G1A G67C	0
C24A G74A	0.12
A43U G76C	0.181
A42C G74A	0.0652
G11C A83U	0.119
U37G C44A	0.0791
U46A C48G	0.802
A42C U46G	0.166
C14U G53U	1.16
G25A G35U	0.135
G17C C19G	0
A8C C58A	0.692
G10C C26G	1.14
G40U C85A	0.427
C22G U37C	0.136
A51U C84U	0.716

Variant	self-cleavage
U37G C58U	0.0504
C22G C86G	0.0779
A51G G67C	0.864
G10A G74U	0.257
C4G U9C	0.19
A16U A42U	0.465
C4U A16C	0.434
C64U U65C	0.914
U72A A87C	0.81
U72A A87U	0.729
G40U U65G	0.546
U47A G73A	0.447
G31C A42C	0.128
G28A U46C	0.0594
U60G C86U	0.959
C61G A77C	0.203
A45G C58G	1.14
G10C U46C	0.475
C58U U72G	0.431
G29C U79A	0.147
C33A C75G	0.145
C41G G82U	0.157
A8U C24U	0.787
C26A U60G	1.2

Variant	self-cleavage
G25U A71C	0.213
C14G C61U	0.598
G35U C63A	0.389
A42U A71G	0.431
C13U C57G	0.587
C63G A70C	0.415
U27C A71G	0.677
G11C G39C	0.0489
U65C U69A	0.989
U20G G39U	0.0369
G68C C75A	0.0346
G25A C75U	0.0923
G67U C85U	0.972
G34A C85A	0.199
A51G C58U	0.95
C49A A77U	0.404
G28U U79C	0.0707
A45U C58G	0.712
A16C G28C	0.119
G6U U27A	0.453
C3A A78U	0.0627
A45C U60C	0.573
G1A G25A	0.0739
G39U G59C	0.671

Variant	self-cleavage
C14U G29A	0.188
C32G U69A	0.148
C18A A78G	0.131
C26G G52A	0.867
G39A G54A	0.54
A16G U69A	0.985
U60G C75A	0.229
C4A A70C	0.136
G34C C41A	0.233
C15G U23G	0.415
C26U C48A	0.917
A78G A83G	0.445
C22U C63A	0.697
G31U G82A	0.185
U27G G55U	1
G74A A83G	0.205
G6C G25A	0.0898
C30U G38U	0.262
G25U G53U	0.145
C24A C48G	0.47
G2U C26A	0.0357
G38C G76C	0.122
G2U G50U	0
G1A C62A	0.0791

Variant	self-cleavage
U65G C66U	0.702
C36G C57A	0.177
G5A U37G	0.0504
U9C A77C	0.364
C62U U69A	1.24
G5U A16G	0.175
U27G A43C	0.166
C19A C41G	0
U60C G68A	0.81
U47G G68A	0.831
G28C G54A	0.0639
C14A C84G	0.623
A43C G54C	0.403
G39U A71G	0.383
C13G G54U	0.0282
C61A U65G	0.92
C19U G68C	0.148
C36U C66U	0.741
G35C C44U	0.0536
C26G G50C	0.997
A70C G73A	0.407
C13A A43C	0.135
A8C A71C	0.308
U23A A45U	0.727

Variant	self-cleavage
U27C G55C	0.847
A78U G81U	0.269
G31A C66U	0.387
C14A G52U	1.03
C24U U72C	0.104
C3U A8G	0.554
C58A G82A	0.614
A42G U60A	0.302
U20G	0.205
G73U A83C	0.17
G17A A51U	0.884
A43U G53U	0.492
C18A G74A	0.0674
C3A G67U	0.71
G1C G59A	0.19
G28A A87C	0.0676
U69C A70G	0.889
G17U G31A	0.107
U12G G82A	0.499
C13A U72G	0.0639
C7U U65G	0.856
G25A G74C	0.163
U47A	0.958
C14U A42U	0.587

Variant	self-cleavage
G35A G74C	0.208
C19G G59U	0.04
C4A U72A	0.0723
U37C A77U	0.388
G76A C84A	0.958
U37C C41A	0.929
G34C G74A	0.0354
U60G G68C	0.965
C14G G39C	0.217
A42U G55C	0.87
C49G G52U	0.48
A71U C84U	0.475
G10U C85A	1.15
G54C G81U	0.19
C30A A71C	0.345
U23C G52A	0.906
C44G G55C	0.898
G40A A83C	0.272
G54U U72A	0.614
C19G C21G	0.0326
G74U A83G	0.256
U9C C61U	0.81
G28A C32G	0
G10A G40C	0.302

Variant	self-cleavage
U69G U72G	0.997
C44A C61G	0.608
G68C C84G	0.639
G52U C62U	0.754
U46C A51G	0.639
C21A G28C	0
G53A C86G	1.1
G31A U65C	0.462
A56C U60A	0.937
A43G C61A	0.499
G55A G74C	0.208
A43C G59C	0.322
C75A C85A	0.175
C41G A45U	0.594
U46A A78U	0.156
G10A C66A	0.82
G34C C84G	0.166
A16U C32G	0.156
C18A U27A	0.131
G34U A70G	0.0997
C49A U72C	0.32
A51C U65G	0.937
C14A G73A	0.383
G29A G67C	0.237

Variant	self-cleavage
A45U A71U	1.01
G10U U69C	0.656
A56G C86U	0.987
C24G U72G	0
C4U G5A	0.185
G59A A70U	0.941
G73C C85A	0.231
C13G G53U	0.102
C26G C58A	1.06
C18G A56G	0
G82A A87U	0.443
G6U C36G	0
G11A A51G	0.374
C3A G76U	0.773
G35C A43C	0.17
C66G U72A	0.587
C66G U72C	0.453
C13G G67C	0.0665
A8G U69G	1.19
G2C C84G	0.0639
U20C C86G	0.208
U20A A51G	0
G28A G80U	0.0989
C66U G67U	0.972

Variant	self-cleavage
C30G A78C	0.0744
U9A C44U	0.95
C19A A77C	0.0941
G5A C24U	0
U9A G50A	1.12
C63A A87G	0.946
U20C G52C	0.244
G39U U47A	0.554
C62A G73A	0.545
C66A A77G	0.706
G68C U69C	0.697
U23A U27A	0.675
A87U	1.03
C19U C36A	0.0639
U27G U65G	0.95
C57G G73A	0.658
C7U A43G	0.19
G2U G80C	0.0455
G5U C66U	0.677
G2U U60G	0.0831
C48A A83G	0.791
C41G U65A	0.987
G31C G73A	0.0346
G17C A56G	0.145

Variant	self-cleavage
A42U G76C	0.639
G28C C57A	0
G5C G38A	0.199
U9C C41U	1.05
C19G C62U	0.116
C63G U72A	0.458
G2C A16U	0.0282
A8C G34C	0.178
C64G C86G	0.859
C26G G73C	0.492
G52A G67C	0.878
C62A U79C	0.339
C62A U79A	0.636
A16U C58U	0.962
C14G G76A	0.831
G6C C33A	0.172
U60A A78C	0
G35A G55U	0.577
G2C G67A	0.0449
G11A C33G	0.0554
U9G G38U	0
C3G G67C	0.524
C15A U46A	0.361
C26A A42C	0.227

Variant	self-cleavage
G17U G39C	0.0755
U9G A78G	0.166
C48A G50U	1.17
A43G U72G	0.554
C22U G38A	0.931
C63G C66A	0.289
U47A A78C	0.147
U9C A42C	0.475
U65C C66A	1.18
G50U G59C	1.14
U23G G55A	0.67
C22A A78C	0.0692
C30U G53U	0.697
C61A C84U	0.831
G17U U47G	0.35
U65A U72G	0.399
A16G U60G	0.554
G39A C84U	0.321
A16C A77U	0.199
C26G U79C	0.458
G1C C15G	0.166
C24G G82A	0
U23C C66G	0.923
C57A G81U	0.397

Variant	self-cleavage
C36G U60C	0.237
U23C C41A	0.789
G53U U69G	0.964
G11U C75A	0.0231
A45G G67C	0.54
U79C A87G	0.47
C21U G73U	0.145
C36G C84G	0.116
C32G C63A	0
C15A U20G	0.19
C19G G29C	0.201
C14G C66A	0.665
G38C G52U	0.249
G52C C57A	0.817
G52C C57U	0.991
U23G U65A	0.886
G68A G80U	0.251
G1U G25U	0.248
U27C C66A	0.59
G53A G81A	0.456
G28C A70C	0.104
C22U C41A	0.674
